Measurements published in article PMC3623829.

What was measured:
[1] = target: HIV-1 CA (capsid protein) M68C/E212C (HIV-1); assay: cross-linking; spontaneous disulfide crosslinking of engineered cysteines in virions; viruses pelleted through 20% sucrose (100,000 x g, 30 min), dissolved in SDS sample buffer without beta-mercaptoethanol, 95°C 5 min, SDS-PAGE, immunoblot with rabbit polyclonal anti-CA antibody
[2] = target: HIV-1 CA (capsid protein) Q63C/Y169C (HIV-1); assay: as above

Substance | stoichiometry N [1] | stoichiometry N [2]
HIV-1 CA (capsid protein) M68C/E212C (natural protein) | 6 | –
HIV-1 CA (capsid protein) Q63C/Y169C (natural protein) | – | 6
